Experimental data reported in US6492123.

Tests used:
hen egg lysozyme (hen) [1] = target: hen egg lysozyme (hen) (UniProt P00698); test: phage ELISA, 50 µl phage supernatant, anti-M13 detection; background 0.1
hen egg lysozyme (hen) [2] = target: hen egg lysozyme (hen) (UniProt P00698); test: BIAcore, HEL coated chip

UniProt P00698, sequence (P00698 19-147 limits assumed): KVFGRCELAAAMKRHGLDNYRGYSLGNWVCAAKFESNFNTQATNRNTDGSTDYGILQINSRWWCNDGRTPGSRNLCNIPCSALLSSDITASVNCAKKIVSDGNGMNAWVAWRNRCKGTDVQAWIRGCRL

Substance | absorbance signal (hen egg lysozyme (hen) [1]) | koff (hen egg lysozyme (hen) [2]) [s⁻¹]
NQ11/D1.3/0 bispecific diabody displayed on phage (pHEN1) (bispecific antibody) | 2.8 | 
chimaeric FabD1.3 |  | 0.003
construct VI bispecific NQ11/D1.3 diabody, 5-residue linkers (bispecific antibody) |  | 0.0022
